Read-outs that look alike come from different tables or passages of the source. No end group written: not given here.
What was measured:
[1] = target: T1, CAL PDZ domain (UniProt Q9HD26-2 278-362); test: fluorescence polarisation
[2] = target: T1, CAL PDZ domain; test: fluorescence polarisation; remark: listed apart in the source
[3] = target: T2, NHERF1 PDZ1 domain (human, UniProt O14745 1-139); test: fluorescence polarisation
T2 sequence (looked up): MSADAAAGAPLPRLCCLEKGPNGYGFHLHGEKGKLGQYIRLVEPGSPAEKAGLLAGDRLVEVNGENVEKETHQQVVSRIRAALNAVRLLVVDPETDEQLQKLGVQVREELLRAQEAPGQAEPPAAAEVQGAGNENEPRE

[4] = target: T2, NHERF1 PDZ1 domain; test: fluorescence polarisation; remark: listed apart in the source
[5] = target: T2, NHERF1 PDZ1 domain; test: fluorescence polarisation; remark: listed apart in the source
[6] = target: T2, NHERF1 PDZ1 domain; test: ITC
[7] = target: T2, NHERF1 PDZ1 domain; test: ITC; remark: listed apart in the source
[8] = target: T2, NHERF1 PDZ1 domain; test: SPR
[9] = target: T1, CAL PDZ domain; test: peptide or protein array

Question: How did the Ki [1] turn out when CDGQMQLVTSL [C-CL1_(10)] was run?
Answer: 88.3 ± 6.3 µM

Question: What does the source list for CRPGFASESKV [C-β1AR10]?
Answer: Ki [1]: 510 ± 110 µM; Ki [2]: 410 ± 190 µM

Question: fluorescein-TEEEVQDTRL [F*-CFTR10] was tested. Which Kd [3] did it give?
Answer: 0.279 ± 0.021 µM

Question: How did the Ki [1] turn out when CEVYLLNSTTL [C-ClC3B10] was run?
Answer: 93 ± 8.5 µM

Question: And the Ki [2]?
Answer: 110 ± 60 µM

Question: Which Ki [1] does the source give for CQPRTWLQSPV [C-RTKN10] here?
Answer: 229 ± 16 µM

Question: For CGNDPDRGTSI [C-GluRδ2_(10)], which Ki [1] is on record?
Answer: 560 ± 130 µM

Question: With CGGAALKEETEEEVQDTRL [CGG-CFTR16] as the binder, how does the Ki [4] read?
Answer: 0.209 ± 0.064 µM

Question: For CDTRL [C-CFTR4], which Ki [4] is on record?
Answer: 1.52 ± 0.078 µM

Question: And the Ki [5]?
Answer: 0.949 µM

Question: Which Ki [1] does the source give for CALDTSHGTSI [C-GluRδ1_(10)] here?
Answer: 875 ± 56 µM

Question: For CNQLAWFDTDL [C-βCAT10], which Ki [1] is on record?
Answer: 1110 ± 480 µM

Question: With CHRTCYLVTQL [C-AIC3A10] as the binder, how does the Ki [1] read?
Answer: 42.2 ± 4.2 µM

Question: How did the Kd [6] turn out when TEEEVQDTRL [CFTR10] was run?
Answer: 0.787 ± 0.055 µM

Question: And the dH [6]?
Answer: -10.4 ± 0.19 kcal/mol

Question: What about the “dH extrapolated to 37 °C” value [6] of the same binder?
Answer: -12.2 kcal/mol

Question: What about the dH [7] of the same binder?
Answer: -9.11 kcal/mol

Question: Which Kd [3] does the source give for C(fluorescein‑5‑maleimide)DTRL [F*C-CFTR4] here?
Answer: 0.949 ± 0.089 µM

Question: Which Ki [1] does the source give for CYPKQMPLSQV [C-FRZ8_(10)] here?
Answer: 47 ± 10 µM

Question: For CKKMPSIESDV [C-NR2A10], which Ki [1] is on record?
Answer: 1940 ± 920 µM

Question: CLPHPHSTTRV [C-NLG2_(10)] was tested. Which Ki [1] did it give?
Answer: 107 ± 1.7 µM

Question: How did the Ki [1] turn out when CYHKQVSLSHV [C-FRZ5_(10)] was run?
Answer: 451 ± 42 µM

Question: What does the source list for CTEEEVQDTRL [C-CFTR10]?
Answer: Kd [8]: 0.0103 µM; Ki [1]: 690 ± 120 µM; Ki [4]: 0.597 ± 0.077 µM

Question: Which Ki [1] does the source give for CHPHSHSTTRV [C-NLG10] here?
Answer: 158 ± 19 µM

Question: For CAPIAGFSSFV [C-SDK2_(10)], which Ki [1] is on record?
Answer: 150 ± 20 µM

Question: Does ETEEEVQDTRL (peptide, UniProt P13569 1470-1480, looked up) [CFTR C-terminal undecamer peptide on the HUMLIB array] bind [9]?
Answer: binds

Question: Does AANGLMQTSKL (peptide, UniProt P35346 354-364, looked up) [SSR5 C-terminal undecamer peptide on the HUMLIB array] bind [9]?
Answer: binds

Question: Which Ki [4] does the source give for CVQDTRL [C-CFTR6] here?
Answer: 0.67 ± 0.097 µM

Question: Which Kd [3] does the source give for fluorescein-GGAALKEETEEEVQDTRL [F*GG-CFTR16] here?
Answer: 0.116 ± 0.01 µM

Question: For CANGLMQTSKL [C-SSR5_(10)], which Ki [1] is on record?
Answer: 37.6 ± 4 µM

Question: And the Ki [2]?
Answer: 22.6 ± 7.1 µM

From paper PMC2582146 (Biochemistry, 2008)
